{"source": "patent US20240091164", "molecular_target": "fluorescein isothiocyanate-tagged BSA (FITC-BSA) (UniProt P02769)", "sequence (P02769 25-607)": "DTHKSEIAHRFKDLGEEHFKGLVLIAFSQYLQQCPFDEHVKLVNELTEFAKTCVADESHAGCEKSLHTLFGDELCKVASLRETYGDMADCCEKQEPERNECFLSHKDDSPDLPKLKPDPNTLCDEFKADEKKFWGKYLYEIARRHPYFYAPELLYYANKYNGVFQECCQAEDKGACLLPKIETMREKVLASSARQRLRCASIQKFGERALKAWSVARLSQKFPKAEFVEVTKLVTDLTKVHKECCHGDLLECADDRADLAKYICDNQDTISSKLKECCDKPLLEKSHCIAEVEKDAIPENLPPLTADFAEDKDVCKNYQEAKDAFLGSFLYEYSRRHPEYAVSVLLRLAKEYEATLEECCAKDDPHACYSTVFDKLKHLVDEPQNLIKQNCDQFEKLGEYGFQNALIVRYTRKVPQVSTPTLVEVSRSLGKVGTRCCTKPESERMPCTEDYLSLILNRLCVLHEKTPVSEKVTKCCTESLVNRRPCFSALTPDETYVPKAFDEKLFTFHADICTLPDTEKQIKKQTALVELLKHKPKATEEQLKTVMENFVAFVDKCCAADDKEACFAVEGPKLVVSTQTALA"}
{"substance": "trypsin", "values": [{"measurement": "increase in fluorescence from proteolytic cleavage of quenched FITC-BSA", "result": "This assay confirmed the ability of trypsin@NP to cleave BSA"}]}
